± gives the standard error. Fewer inactive variants are shown than the library holds.
B1: glmS ribozyme (parent)
chain: AUAAAAGCGCCAGAACUACAGAAAUGUAGUUGACGAGGAGGAGGUUUAUCGAAUUUUCGGCGGAUGCCUCCAAA

Legend:
Conditions in all cases: with glucosamine-6-phosphate
glucosamine-6-phosphate [1] = variants of: B1; experiment: self-cleavage kobs at 640 uM GlcN6P; higher = faster cleavage; RNA array
Method in brief: (§1)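 On sequenced MiSeq chips, barcoded ribozyme variants were made in situ by E. coli RNA polymerase and followed at 37 °C through a hybridised Cy3 probe. Glucosamine-6-phosphate was flowed in at 40 μM to 10 mM in HEPES/KCl/Mg(OAc)2 buffer. Exponential fits to normalised per-tile medians gave kobs, and weighted Michaelis–Menten fits gave kcat and KM.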

glucosamine-6-phosphate [2] = variants of: B1; experiment: self-cleavage kobs at 2500 uM GlcN6P; higher = faster cleavage; RNA array
Method in brief: as §1

glucosamine-6-phosphate [3] = variants of: B1; experiment: self-cleavage kobs at 10000 uM GlcN6P; higher = faster cleavage; RNA array
Method in brief: as §1

Variant | self-cleavage kobs at 640 uM GlcN6P (glucosamine-6-phosphate [1]) [s⁻¹] | self-cleavage kobs at 2500 uM GlcN6P (glucosamine-6-phosphate [2]) [s⁻¹] | self-cleavage kobs at 10000 uM GlcN6P (glucosamine-6-phosphate [3]) [s⁻¹]
AUAAAAGCGCCAGAACUACAGAAAUGUACUUGACAAGGAGCAGGUUUAUCGAAUUUUCGGCGUAUGCGUCCAAA | < 1e-05 | – | –
AUAAAAGCGCCAGAACUACAGGAAUGUAGUUGACGGGGAGGAGGUUUAUCGAAUUCUCGGCGGAUGCCUGCAAA | < 1e-05 | < 1e-05 | –
AUAAAAGCGCCAGAACUACAGAAAUGUAAUUGACGAGGAGGAGGUUUAUCGAGUUUUCGGCGGAUGCGUCCAAA | 7.36e-05 ± 2.4e-05 | 7.42e-05 ± 2e-05 | –
AUAAAAGCGCCAGAACUACAGAAAUGUAAUUGACGAGUAGGAGGUUUAUGGAAUUUUCGGCGGAUGCCUCCAAA | 0.00061 ± 0.00027 | – | –
AUAAAAGCGCCAGAACUACAGAAAUGUAAUUGACGAGGAGGAGGUUUAUCGAAUUUUUGGCGGAUGGCUCCAAA | 0.000115 ± 2.9e-05 | – | –
AUAAAAGCGCCAGAACUACAGAAAUGUAAUUGACCAGGAGGAGGUUUGUCGAAUUUUCGGCGGAUGCCUCCAAA | < 1e-05 | – | –
AUAAAAGCGCCAGAACUACAGAAAUGUAAUUGACGAGGAGGGGGUUUAUCGAAUUGUCGGCGGAUGCCUCCAAA | 0.000337 ± 0.00011 | 0.00148 ± 0.00036 | –
AUAAAAGCGCCAGAACUACAGAAAUGUAAUUGACGAGGAGGAGGUAUAUCGAAUUUUCGGCGGAUGCCUCCAAA | 0.000116 ± 2.5e-05 | 0.000221 ± 4.8e-05 | 0.000241 ± 3.6e-05
AUAAAAGCGCCAGAACUACAGAAAUGUAAUUGACGAGGAUCAGGUUUAUCGAAUUUUCGGCGGAUGCCUCCAAA | < 1e-05 | – | –
AUAAAAGCGCCAGAACUACAUAAAUGUAGUUGACGAGGAGGAGGUUUAUCGAACUUUCGGCGGAUGCCCCCAAA | 0.00201 ± 0.00057 | 0.000416 ± 0.00014 | –
AUAAAAGCGCCAGAACUACAGAAAUUUAGUUGACGAGGAGGAGGUUUAUCGAAUUUUCGGCGGAUGCCUCAAAA | 0.000733 ± 0.0002 | 0.000394 ± 0.0001 | –
AUAAAAGCGCCAGAACUACAGAAAUGUAAUUGACGAGAAGGACGUUUAUCGAAUUUUCGGCGGAUGCCUCCAAA | < 1e-05 | – | –
AUAAAAGCGCCAGAACUACAUAAAUGUAGUUGACGAGGAGGAGGUGUACCGAAUUUUCGGCGGAUGCCUCCAAA | < 1e-05 | < 1e-05 | –
AUAAAAGCGCCAGAACUACAGAAAUGUACUUCACGAGGAGGAGGUUUAUCGCAUUUUCGGCGGAUGCGUCCAAA | 8.66e-05 ± 3.9e-05 | – | –
AUAAAAGCGCCAGAACUACAGAAAUGUACUUGACGCGGCGGAGGUUUAUCGAAUUUUCGGCGGAUGCCUCCAAA | < 1e-05 | – | < 1e-05
AUAAAAGCGCCAGAACUACAGAAAUUUAGUUUACGAGGAGGAGGUUUAUCGAAUUUUCGGCGGAUGCCUCCAAA | 0.000131 ± 4.5e-05 | 0.000943 ± 0.00021 | –
AUAAAAGCGCCAGAACUACAGAAAUGUAAUUAACGAGGAGGAGGUUUAUCGAAUUUUCGGCGGAUACCUCCAAA | 0.000119 ± 2.8e-05 | 0.000338 ± 8.3e-05 | –
AUAAAAGCGCCAGAACUACAUAAAUGUAGUUGACGAGGAGGAGGCUUAUCGAAUUUUCGGCGGAUGCUUCCAAA | 0.000572 ± 0.0001 | 0.000312 ± 8e-05 | 0.00114 ± 0.00043
AUAAAAGCGCCAGAACUACAGAAAUGUAAGUGACAAGGUGGAGGUUUAUCGAAUUUUCGGCGGAUGCCUCCAAA | < 1e-05 | < 1e-05 | –
AUAAAAGCGCCAGAACUACAGAAAUGUACUUGACCAGUAGGAGGUUUAUCUAAUUUUCAGCGGAUGCCUCCAAA | < 1e-05 | < 1e-05 | –
AUAAAAGCGCCAGAACUACAGAAAUGUACUUGGCGAGGAGGAGGUUUAUCGAAUUUUCGGCGGAUGCGUCCAAA | 6.58e-05 ± 3e-05 | – | –
AUAAAAGCGCCAGAACUACAGAAAUGUACUUGACGAGGAGGAGGUUUAUCGAAUUUUUGGCGGAUGCCACCAAA | 5.92e-05 ± 2.8e-05 | – | –
